Measurements as given in patent US20190041402A1 (GOVERNING COUNCIL OF THE UNIVERSITY OF TORONTO, published 2019).

Key:
[1] = molecular target: T1, extracellular domain (ECD) of human αKlotho, amino acids E34-S981 with C-terminal 6-His tag (R&D Systems … (human, UniProt Q9UEF7 34-981)); assay: SPR, Fab captured by anti-H+L IgG, αKlotho injected at 50 to 6.25 ug/ml, Langmuir fit
T1 construct: range 34-981; also called αKlotho (aa34-981); target antigen
T1 sequence: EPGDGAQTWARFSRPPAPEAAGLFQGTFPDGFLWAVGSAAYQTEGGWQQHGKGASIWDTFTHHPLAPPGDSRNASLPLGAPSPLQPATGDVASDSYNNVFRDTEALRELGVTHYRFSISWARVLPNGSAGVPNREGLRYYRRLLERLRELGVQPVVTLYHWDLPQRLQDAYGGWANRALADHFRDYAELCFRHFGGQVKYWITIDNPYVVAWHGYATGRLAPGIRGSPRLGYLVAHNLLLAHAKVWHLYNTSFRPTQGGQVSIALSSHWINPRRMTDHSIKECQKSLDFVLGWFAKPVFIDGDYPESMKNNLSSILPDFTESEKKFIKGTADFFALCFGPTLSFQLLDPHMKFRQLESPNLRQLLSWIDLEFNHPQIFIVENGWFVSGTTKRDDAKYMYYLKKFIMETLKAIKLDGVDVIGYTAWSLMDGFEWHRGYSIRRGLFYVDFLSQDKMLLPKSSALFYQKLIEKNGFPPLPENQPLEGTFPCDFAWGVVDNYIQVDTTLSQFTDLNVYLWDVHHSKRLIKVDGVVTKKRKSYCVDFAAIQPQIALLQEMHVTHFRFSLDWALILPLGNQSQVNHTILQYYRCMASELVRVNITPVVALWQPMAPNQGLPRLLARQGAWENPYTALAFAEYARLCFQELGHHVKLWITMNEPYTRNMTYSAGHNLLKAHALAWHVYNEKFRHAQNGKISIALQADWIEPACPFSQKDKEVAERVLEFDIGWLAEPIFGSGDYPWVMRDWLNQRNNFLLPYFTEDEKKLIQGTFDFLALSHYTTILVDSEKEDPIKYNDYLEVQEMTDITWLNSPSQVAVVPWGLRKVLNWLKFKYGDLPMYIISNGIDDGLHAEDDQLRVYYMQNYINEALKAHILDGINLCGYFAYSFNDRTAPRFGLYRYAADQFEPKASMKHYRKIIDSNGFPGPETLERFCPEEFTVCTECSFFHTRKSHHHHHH
Experimental: Affinity estimates for each of the antibodies were determined by surface plasmon resonance (SPR). Fabs were immobilized using an anti-H+L antibody and serial dilutions of αKlotho were injected.

[2] = molecular target: T2, bovine serum albumin (bovine, UniProt P02769 25-607); assay: Fab ELISA, Fab 5 ug/ml on immobilised antigen, anti-Flag-HRP, A450
T2 construct: also called BSA
T2 sequence (P02769 25-607 limits assumed): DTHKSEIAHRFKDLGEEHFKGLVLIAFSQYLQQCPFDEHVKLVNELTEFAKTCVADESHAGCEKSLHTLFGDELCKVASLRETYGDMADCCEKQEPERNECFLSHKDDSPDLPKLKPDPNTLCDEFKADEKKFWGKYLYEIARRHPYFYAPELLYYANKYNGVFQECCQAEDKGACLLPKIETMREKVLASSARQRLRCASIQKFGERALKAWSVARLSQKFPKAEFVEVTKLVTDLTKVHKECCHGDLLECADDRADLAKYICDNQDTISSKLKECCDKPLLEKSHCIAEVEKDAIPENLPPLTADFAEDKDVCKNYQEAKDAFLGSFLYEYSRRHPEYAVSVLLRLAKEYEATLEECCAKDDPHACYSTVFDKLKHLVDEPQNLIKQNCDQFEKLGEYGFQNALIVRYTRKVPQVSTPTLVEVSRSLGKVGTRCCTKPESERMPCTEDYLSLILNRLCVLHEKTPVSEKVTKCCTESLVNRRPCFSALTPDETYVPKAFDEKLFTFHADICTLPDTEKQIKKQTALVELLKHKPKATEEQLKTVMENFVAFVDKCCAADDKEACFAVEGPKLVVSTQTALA
Experimental: Fab ELISA using both human and mouse αKlotho was carried out for assessing cross-reactivity to human and mouse αKlotho (FIG. 16). Fabs (5 ug/ml) were incubated with immobilized αKlotho human, mouse, or neutravidin (NA) and SBA as negative controls. After washing off unbound Fab, bound Fab were detected using an HRP-conjugated anti-Flag antibody (Fabs have Falg tag on the end of their light chains). Colorimetric HRP reagents allow for absorbance readings at 450 nm.

[3] = molecular target: T3, soluble human αKlotho (recombinant) (human, UniProt Q9UEF7 34-981); assay: competitive Fab-phage ELISA, soluble human αKlotho against immobilised human αKlotho
T3 construct: also called Hu aKL; recombinant human αKlotho
T3 sequence (looked up): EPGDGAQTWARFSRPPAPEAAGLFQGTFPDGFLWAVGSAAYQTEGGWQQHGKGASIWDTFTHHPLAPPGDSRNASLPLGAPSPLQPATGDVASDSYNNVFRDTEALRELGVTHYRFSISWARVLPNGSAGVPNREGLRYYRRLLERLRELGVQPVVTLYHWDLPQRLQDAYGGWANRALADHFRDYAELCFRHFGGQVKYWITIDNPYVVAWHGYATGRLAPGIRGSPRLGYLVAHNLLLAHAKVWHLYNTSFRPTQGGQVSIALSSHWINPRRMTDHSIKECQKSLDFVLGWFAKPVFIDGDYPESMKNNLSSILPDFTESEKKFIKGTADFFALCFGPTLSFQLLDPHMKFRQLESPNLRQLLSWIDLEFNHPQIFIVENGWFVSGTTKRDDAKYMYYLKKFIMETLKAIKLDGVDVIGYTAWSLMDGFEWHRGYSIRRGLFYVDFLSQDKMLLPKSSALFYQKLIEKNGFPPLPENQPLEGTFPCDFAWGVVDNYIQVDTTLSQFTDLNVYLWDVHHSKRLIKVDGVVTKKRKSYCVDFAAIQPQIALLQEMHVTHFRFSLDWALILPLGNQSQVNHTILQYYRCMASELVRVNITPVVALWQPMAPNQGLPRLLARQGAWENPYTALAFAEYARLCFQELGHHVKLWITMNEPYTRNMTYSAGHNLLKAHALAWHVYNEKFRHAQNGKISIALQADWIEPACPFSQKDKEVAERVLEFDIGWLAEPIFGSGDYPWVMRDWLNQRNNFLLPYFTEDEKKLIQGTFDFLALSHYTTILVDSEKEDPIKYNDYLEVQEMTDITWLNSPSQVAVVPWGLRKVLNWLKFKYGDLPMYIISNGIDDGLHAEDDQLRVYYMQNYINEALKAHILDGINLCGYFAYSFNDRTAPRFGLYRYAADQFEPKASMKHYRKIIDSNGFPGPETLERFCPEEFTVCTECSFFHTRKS
Experimental: (A) CDR sequences and VH domain framework region residues variable in Library F for anti-αKlotho sb106, according to the IMGT (international ImMunoGeneTics database) numbering scheme. IMGT CDR residues are underlined, IMGT framework region residues are not underlined, residues at IMGT positions which were randomized in the selection library are bold. (B) Specificity determination of anti-αKlotho sb106 by Fab-phage ELISA: sb106 Fab-phage were incubated with the following immobilized antigens: a complex of FGFR1c/αKlotho complex (aKL-R1), FGFR1c alone (R1), human αKlotho (Hu aKL) and mouse αKlotho (Mu aKL), or neutravidin (NA) and bovine serum albumin (BSA) as negative controls. After washing off unbound phage, bound phages were detected using an HRP-conjugated anti-phage antibody. Colorimetric HRP reagents allow for absorbance readings at 450 nm. […] The binding signals to immobilized human αKlotho reported are an average of two data sets.
Binding selections, phage ELISAs and Fab protein purification were performed as described. Briefly, phage from library F were cycled through rounds of panning with the binary complex of αKlotho extracellular domain and FGFR1c ligand-binding domain on 96-well Maxisorp Immunoplates (Fisher Scientific, Nepean, ON, Canada) as the capture target. […]

Kd [1]: 1.08 nM
koff [1]: 0.000389 s⁻¹
kon [1]: 360000 M⁻¹ s⁻¹
binding result [2]: no binding (tested: 5 ug/ml)
IC50 [3]: 1.7 nM
B1: sb106 Fab (Fab, V domains shown)
VH: EVQLVESGGGLVQPGGSLRLSCAASGFNISYYSIHWVRQAPGKGLEWVAYISPSYGYTSYADSVKGRFTISADTSKNTAYLQMNSLRAEDTAVYYCARYYVYASHGWAGYGMDYWGQGTLVTVSS
VL: DIQMTQSPSSLSASVGDRVTITCRASQSVSSAVAWYQQKPGKAPKLLIYSASSLYSGVPSRFSGSRSGTDFTLTISSLQPEDFATYYCQQAGYSPITFGQGTKVEIKR
notes: also called Fsb106; clone 48
